From patent US20220073649A1 (MERUS N V, published 2022)

B1: CXCR4-3 (third chimeric Fab comprising a chicken VH paired with a human VL that binds to mouse and human CXCR4) (Fab, V domains shown)
VH: AVTLDESGGGLQTPGGALSLVCKASGFSIGSYGMGWVRQAPGKGLEFVAGISTIGGVTWYGAAVKGRAIISRDNGQSTVRLQLNNLRAEDTGTYFCAKASDSPSCRYGSRSGWSCPGWNYGGRIDAWGHGTEVIVSS
VL: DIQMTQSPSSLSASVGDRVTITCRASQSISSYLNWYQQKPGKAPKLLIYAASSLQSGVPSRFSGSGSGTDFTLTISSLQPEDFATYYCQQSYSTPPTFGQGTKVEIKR
notes: Positive clones were later recloned into IgG format; also called chicken VH-human VL Fab
B2: CXCR4-1 (first chimeric Fab comprising a chicken VH paired with a human VL that binds to mouse and human CXCR4) (Fab, V domains shown)
VH: AVTLDESGGGLQTPGGALSLVCKASGFTFSSYRGMHWVRQAPGKGLEWVAGIYSSGSSTAYGAAVKGRATISRDDGQSTVRLQLNNLRAEDTGTYYCAKDAGSCWYGRRSGFNCDPYGGNIDAWGHGTEVIVSS
VL: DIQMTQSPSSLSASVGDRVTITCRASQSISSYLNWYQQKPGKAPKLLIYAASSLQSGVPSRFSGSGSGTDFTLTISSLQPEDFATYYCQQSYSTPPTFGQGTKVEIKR
notes: as for B1
B3: CXCR4-2 (second chimeric Fab comprising a chicken VH paired with a human VL that binds to mouse and human CXCR4) (Fab, V domains shown)
VH: AVTLDESGGGLQTPGGALSLVCKASGFSFSSYDMSWVRQAPGKGLEWVAGIYSIGRDAGYGAAVKGRATISRDNGQSTVRLQLNNLRAEDTGTYYCAKESGSACRYAARHGYICAGYLGSIDAWGHGTEVIVSS
VL: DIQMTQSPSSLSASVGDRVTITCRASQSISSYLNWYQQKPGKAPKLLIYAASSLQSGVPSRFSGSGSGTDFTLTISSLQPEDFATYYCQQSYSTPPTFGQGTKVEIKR
notes: as for B1

Tests used:
[1] = biological target: T1, mouse CXCR4 (wildtype full length) (mouse, UniProt P70658 1-359); experiment: figure legend (flow cytometry of Example 10)
T1 construct: Natively folded mouse CXCR4 expressed on HEK293 cells for flow cytometry
T1 sequence (P70658 whole entry): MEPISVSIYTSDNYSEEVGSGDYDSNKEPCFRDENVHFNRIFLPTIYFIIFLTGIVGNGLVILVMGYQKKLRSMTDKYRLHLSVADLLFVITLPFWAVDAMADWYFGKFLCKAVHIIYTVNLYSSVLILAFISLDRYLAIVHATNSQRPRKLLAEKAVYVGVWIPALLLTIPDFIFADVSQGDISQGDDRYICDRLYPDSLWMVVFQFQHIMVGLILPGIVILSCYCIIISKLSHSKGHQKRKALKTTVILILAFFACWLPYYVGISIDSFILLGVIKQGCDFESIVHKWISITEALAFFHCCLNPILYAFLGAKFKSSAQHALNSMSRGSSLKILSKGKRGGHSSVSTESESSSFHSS
Source text: (§1) Fab phage libraries were panned on mouse CXCR4 lipoparticles. Clones were screened by lipoparticle ELISA. Binders were sequenced and grouped into families based on CDR3 homology. Fab from three VHCDR3 families were validated by flow cytometry using HEK293 cells expressing natively folded mouse CXCR4. These families were subsequently tested for binding to human CXCR4 by flow cytometry. The positive clones were recloned into IgG format according to standard methods. Three VHCDR3 families were identified that are crossreactive with human and mouse CXCR4. The amino acid sequences of the heavy chain variable region of the mouse and human CXCR4 binding antibodies are set forth in SEQ Nos: 31, 32 and 33.

human CXCR4 [2] = biological target: T2, human CXCR4 (human, UniProt P61073 1-352); experiment: figure legend (flow cytometry of Example 10)
T2 construct: whole, on cells; Tested by flow cytometry; also called human C-X-C Motif Chemokine Receptor 4
T2 sequence (P61073 whole entry): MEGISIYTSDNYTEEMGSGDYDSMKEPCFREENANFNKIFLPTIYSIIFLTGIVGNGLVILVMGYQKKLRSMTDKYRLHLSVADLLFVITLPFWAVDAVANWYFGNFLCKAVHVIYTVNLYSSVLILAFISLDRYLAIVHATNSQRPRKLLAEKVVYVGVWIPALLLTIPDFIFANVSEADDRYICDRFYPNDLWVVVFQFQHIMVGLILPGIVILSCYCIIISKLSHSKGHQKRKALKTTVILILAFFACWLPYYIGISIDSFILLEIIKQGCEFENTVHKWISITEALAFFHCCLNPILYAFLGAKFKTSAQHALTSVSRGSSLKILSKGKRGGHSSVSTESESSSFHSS
Source text: as §1

human CXCR4 [3] = biological target: T2, human CXCR4; experiment: flow cytometry on human CXCR4
Source text: as §1

[4] = biological target: T1, mouse CXCR4 (wildtype full length); experiment: flow cytometry, Fab on HEK293 cells expressing natively folded mouse CXCR4
Source text: as §1

Row | Binder | binding result [1] | binding result (human CXCR4 [2]) | binding result (human CXCR4 [3]) | binding result [4]
1 | B1 | binds | binds |  | 
2 | B2 |  |  | binds | binds
3 | B3 |  | binds |  | binds
